Experimental findings from patent publication US20190263932A1 are described below.

This test deals with human TrkA receptor expressed in transfected 3T3 fibroblast cells (human), P04629. Briefly: cell-based or functional assay.
human TrkA receptor expressed in transfected 3T3 fibroblast cells (human), P04629, sequence (P04629 33-796): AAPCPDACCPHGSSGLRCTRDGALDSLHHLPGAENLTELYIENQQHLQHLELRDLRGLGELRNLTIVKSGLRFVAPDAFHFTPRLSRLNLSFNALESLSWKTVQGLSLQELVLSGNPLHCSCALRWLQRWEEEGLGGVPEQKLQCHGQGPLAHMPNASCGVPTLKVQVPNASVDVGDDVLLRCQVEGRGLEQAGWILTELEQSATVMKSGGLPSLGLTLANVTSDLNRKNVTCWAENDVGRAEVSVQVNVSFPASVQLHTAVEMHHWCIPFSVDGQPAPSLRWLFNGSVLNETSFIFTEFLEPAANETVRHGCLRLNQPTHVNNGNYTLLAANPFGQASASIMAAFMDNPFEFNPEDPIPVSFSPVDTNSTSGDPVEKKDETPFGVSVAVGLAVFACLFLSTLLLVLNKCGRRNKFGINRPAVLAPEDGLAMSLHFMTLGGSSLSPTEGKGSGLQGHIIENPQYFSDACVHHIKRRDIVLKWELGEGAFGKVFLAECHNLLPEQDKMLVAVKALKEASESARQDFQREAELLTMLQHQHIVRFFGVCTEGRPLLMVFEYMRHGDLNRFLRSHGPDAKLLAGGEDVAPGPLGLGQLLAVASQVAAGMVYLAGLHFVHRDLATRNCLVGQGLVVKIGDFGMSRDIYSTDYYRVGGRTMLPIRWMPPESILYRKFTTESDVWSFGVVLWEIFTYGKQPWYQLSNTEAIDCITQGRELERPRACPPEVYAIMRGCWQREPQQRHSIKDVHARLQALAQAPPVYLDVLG

B1: mAb D (antibody, human IgG1, kappa)
heavy: EVQLVESGGGLVKPGGSLRLSCAASGFTFSGVSINWVRQAPGKGLEWVSSETTSSGTIYYADSVKGRFTISRDNAKNSLYLQMNSLRAEDTAVYYCARSYYYGMDVWGQGTTVTVSSASTKGPSVFPLAPSSKSTSGGTAALGCLVKDYFPEPVTVSWNSGALTSGVHTFPAVLQSSGLYSLSSVVTVPSSSLGTQTYICNVNHKPSNTKVDKRVEPKSCDKTHTCPPCPAPEAEGAPSVFLFPPKPKDTLMISRTPEVTCVVVDVSHEDPEVKFNWYVDGVEVHNAKTKPREEQYNSTYRVVSVLTVLHQDWLNGKEYKCKVSNKALPSSIEKTISKAKGQPREPQVYTLPPSREEMTKNQVSLTCLVKGFYPSDIAVEWESNGQPENNYKTTPPVLDSDGSFFLYSKLTVDKSRWQQGNVFSCSVMHEALHNHYTQKSLSLSPGK
light: DIVMTQTPLSSPVTLGQPASISCRSSQSLVHRAGNTYLSWLQQRPGQPPRLLIYKISNRFSGVPDRFSGSGAGTDFTLKISRVEAEDVGVYYCMQARQFPLTFGGGTKVEIKRTVAAPSVFIFPPSDEQLKSGTASVVCLLNNFYPREAKVQWKVDNALQSGNSQESVTEQDSKDSTYSLSSTLTLSKADYEKHKVYACEVTHQGLSSPVTKSFNRGEC
The molecule B1 gave a % Max Inhibition, pTrkA of 66%; a % Max stimulation, pTrkA of 27%; an EC50 (nM), pTrkA of 0.28 nM; an IC50 (nM), pTrkA of 0.12 nM. Also, the pTrkA counts per second, 0.1 pM mAb, no NGF (counts per second) was determined as 277000; the pTrkA counts per second, 1 pM mAb, no NGF (counts per second) came to 398000; the pTrkA counts per second, 10 pM mAb, no NGF (counts per second) was found to be 335000; the pTrkA counts per second, 100 pM mAb, no NGF (counts per second) is 486000. This molecule gave a pTrkA counts per second, 1 nM mAb, no NGF (counts per second) of 935000; a pTrkA counts per second, 10 nM mAb, no NGF (counts per second) of 1.16e+06; a pTrkA counts per second, 100 nM mAb, no NGF (counts per second) of 994000; a pTrkA counts per second, 1 uM mAb, no NGF (counts per second) of 1.02e+06. Besides, the pTrkA counts per second, NGF +0.1 pM mAb (counts per second) turned out to be 2.56e+06; the pTrkA counts per second, NGF +1 pM mAb (counts per second) is 2.79e+06; the pTrkA counts per second, NGF +10 pM mAb (counts per second) was 2.68e+06; the pTrkA counts per second, NGF +100 pM mAb (counts per second) was 2.01e+06. Further, the pTrkA counts per second, NGF +1 nM mAb (counts per second) is 1.35e+06; the pTrkA counts per second, NGF +10 nM mAb (counts per second) worked out at 1.2e+06; the pTrkA counts per second, NGF +100 nM mAb (counts per second) was determined as 1.44e+06; the pTrkA counts per second, NGF +1 uM mAb (counts per second) was found to be 971000.

B2: mAb E (antibody, human IgG1, kappa)
heavy: EVQLVESGGGLVKPGGSLRLSCAASGFTFSGVSINWVRQAPGKGLEWVSSETTSSGTIYYADSVKGRFTISRDNAKNSLYLQMNSLRAEDTAVYYCARSYYYGMDVWGQGTTVTVSSASTKGPSVFPLAPSSKSTSGGTAALGCLVKDYFPEPVTVSWNSGALTSGVHTFPAVLQSSGLYSLSSVVTVPSSSLGTQTYICNVNHKPSNTKVDKRVEPKSCDKTHTCPPCPAPEAEGAPSVFLFPPKPKDTLMISRTPEVTCVVVDVSHEDPEVKFNWYVDGVEVHNAKTKPREEQYNSTYRVVSVLTVLHQDWLNGKEYKCKVSNKALPSSIEKTISKAKGQPREPQVYTLPPSREEMTKNQVSLTCLVKGFYPSDIAVEWESNGQPENNYKTTPPVLDSDGSFFLYSKLTVDKSRWQQGNVFSCSVMHEALHNHYTQKSLSLSPGK
light: DIVMTQTPLSSPVTLGQPASISCRSSQSLVHRQGNTYLSWLQQRPGQPPRLLIYKISNRFSGVPDRFSGSGAGTDFTLKISRVEAEDVGVYYCMQARQFPLTFGGGTKVEIKRTVAAPSVFIFPPSDEQLKSGTASVVCLLNNFYPREAKVQWKVDNALQSGNSQESVTEQDSKDSTYSLSSTLTLSKADYEKHKVYACEVTHQGLSSPVTKSFNRGEC
As to B2, the % Inh., Human pTrkA was 56%; the % Max Inhibition, pTrkA worked out at 57%; the % Max stimulation, pTrkA came to 31%; the EC50 (nM), pTrkA was 0.29 nM. Further, the IC50 (nM), pTrkA is 0.48 nM; the pTrkA counts per second, 0.1 pM mAb, no NGF (counts per second) was determined as 178000; the pTrkA counts per second, 1 pM mAb, no NGF (counts per second) was found to be 181000; the pTrkA counts per second, 10 pM mAb, no NGF (counts per second) is 194000. The same molecule came in with a pTrkA counts per second, 100 pM mAb, no NGF (counts per second) of 264000; a pTrkA counts per second, 1 nM mAb, no NGF (counts per second) of 487000; a pTrkA counts per second, 10 nM mAb, no NGF (counts per second) of 600000; a pTrkA counts per second, 100 nM mAb, no NGF (counts per second) of 605000. The molecule also yielded a pTrkA counts per second, 1 uM mAb, no NGF (counts per second) of 483000; a pTrkA counts per second, NGF +0.1 pM mAb (counts per second) of 1.85e+06; a pTrkA counts per second, NGF +1 pM mAb (counts per second) of 2.19e+06; a pTrkA counts per second, NGF +10 pM mAb (counts per second) of 2.76e+06. The same molecule returned a pTrkA counts per second, NGF +100 pM mAb (counts per second) of 2.78e+06; a pTrkA counts per second, NGF +1 nM mAb (counts per second) of 838000; a pTrkA counts per second, NGF +10 nM mAb (counts per second) of 800000; a pTrkA counts per second, NGF +100 nM mAb (counts per second) of 739000. The pTrkA counts per second, NGF +1 uM mAb (counts per second) was determined as 630000.
